# Measured values taken from US20220348635A1, “COMPOSITIONS AND METHODS FOR NEUROLOGICAL DISEASES” (Coda Biotherapeutics, Inc., priority 2019, published 2022).
# B1: Y115D, L131Q in SEQ ID NO: 33: CR-11 (Chemogenic receptor-11): SEQ ID NO: 33 with substitutions Y115D and L131Q (protein)
# chain: MRCSPGGVWLALAASLLHVSLQGEFQRKLYKELVKNYNPLERPVANDSQPLTVYFSLSLLQIMDVDEKNQVLTTNIWLQMSWTDHYLQWNVSEYPGVKTVRFPDGQIWKPDILLDNSADERFDATFHTNVQVNSSGHCQYLPPGIFKSSCPMDLKNFPMDVQTCKLKFGSWSYGGWSLDLQMQEADISGYIPNGEWDLVGIPGKRSERFYECCKEPYPDVTFTVTMRRRMGYYLIQMYIPSLLIVILSWISFWINMDAAPARVGLGITTVLTMTTQSSGSRASLPKVSYVKAIDIWMAVCLLFVFSALLEYAAVNFVSRQHKELLRFRRKRRHHKSPMLNLFQEDEAGEGRFNFSAYGMGPACLQAKDGISVKGANNSNTTNPPPAPSKSPEEMRKLFIQRAKKIDKISRIGFPMAFLIFNMFYWIIYKIVRREDVHNQ
# modifications: synthetic sequence of chimeric LGIC
# Experiments:
# Type in all cases: cell-based
# [1] = High throughput electrophysiology in HEK293T cells, acetylcholine
# Description: (§1) To confirm the EC50s determined by plate reader as well as develop a better understanding of maximum current flow, the engineered receptors were subjected to high throughput electrophysiology system, as described below. For HEK293T studies, cDNAs encoding ion channels were cloned into pcDNA3.1 using standard recombination techniques. HEK293T cells from Clontech (Lenti-X™ 293T Cell Line) were cultured in DMEM supplemented with 10% FBS and 1% Pen/Strep to 40-50% confluence using standard cell culture protocols, transfected with ion channel plasmids at a concentration of 18 μg per 15 cm dish using Fugene 6, and grown for an additional 24 hours. Cells were then assayed on a electrophysiological system (IonFluxHT and/or Mercury, Fluxion Biosciences) in which dose-response relationships may be assessed through a microfluidics-based platform for establishing whole cell configurations. […] Data were then analyzed off-line using custom Python scripts to convert data to .csv format, re-plot traces, and apply QC measurements to reject unstable recordings (i.e. thresholding based on access resistance and/or standard deviation in baseline, as well as artifact rejection). Peak currents were then calculated and population data were fit using a 4-parameter logistic equation as described by the Hill Equation. […]
# [2] = Manual patch clamp, rat DRG neurons, Facinicline/RG3487; details: cultured adult rat DRG neurons expressing the receptor; not observed in non-transduced cells
# Description: Using whole cell manual patch clamp electrophysiology in HEK293 cells and rat DRG neurons, the EC50 of the various engineered receptors disclosed herein to Ach and non-native ligands was measured. The rheobase shift was also measured in rat DRG neurons, which reflects the efficacy of the receptors. To calculate the rheobase, first, the amount of current that can produce an action potential was determined. Then the ligand was added, followed by a step wise increase in the current injected up to 700 pA. The current injected after addition of the ligand was divided by, the original current injected to obtain an action potential, to calculate the rheobase. The EC50 was calculated using the Hill equation with peak current measurements from escalating doses of ligand.
# [3] = High throughput electrophysiology in HEK293T cells, RG-3487
# Description: as §1
molecule,measurement,setting,value
B1,fold reduced potency to acetylcholine compared to wild type receptor,[1],over 500 fold
same,chloride current on application of RG-3487 (SA-2),[2],generated chloride current in a dose dependent manner
same,fold increased potency to RG-3487 compared to wild type receptor,[3],over 10 fold
